Values belong to the binder of their own block, whether it stands above or below them.
What was measured:
Assay in all cases: UV-ligand exchange, anti-b2m ELISA; exchange yield grade (+ >10%, ++ >20%, +++ >50, ++++ >75%)
HLA-B*07:02 = target: T1, HLA-B*07:02 (human)
T1 construct: Peptide-receptive MHC monomer made by UV cleavage of a UV-sensitive peptide
Excerpt: (§1) Candidate peptides for T cell based therapies according to the present invention were further tested for their MHC binding capacity (affinity). The individual peptide-MHC complexes were produced by UV-ligand exchange, where a UV-sensitive peptide is cleaved upon UV-irradiation, and exchanged with the peptide of interest as analyzed. Only peptide candidates that can effectively bind and stabilize the peptide-receptive MHC molecules prevent dissociation of the MHC complexes. To determine the yield of the exchange reaction, an ELISA was performed based on the detection of the light chain (β2m) of stabilized MHC complexes. The assay was performed as generally described in Rodenko et al. (Rodenko et al., 2006).
(§2) 96 well MAXISorp plates (NUNC) were coated over night with 2 ug/ml streptavidin in PBS at room temperature, washed 4× and blocked for 1 h at 37° C. in 2% BSA containing blocking buffer. Refolded HLA-A*02:01/MLA-001 monomers served as standards, covering the range of 15-500 ng/ml. Peptide-MHC monomers of the UV-exchange reaction were diluted 100-fold in blocking buffer. Samples were incubated for 1 h at 37° C., washed four times, incubated with 2 ug/ml HRP conjugated anti-β2m for 1 h at 37° C., washed again and detected with TMB solution that is stopped with […]. Absorption was measured at 450 nm. Candidate peptides that show a high exchange yield (preferably higher than 50%, most preferred higher than 75%) are generally preferred for a generation and production of antibodies or fragments thereof, and/or T cell receptors or fragments thereof, as they show sufficient avidity to the MHC molecules and prevent dissociation of the MHC complexes.

HLA-A*24:02 = target: T2, HLA-A*24:02 (human)
T2 construct: Peptide-receptive MHC monomer made by UV cleavage of a UV-sensitive peptide
Excerpt: as §1, §2

HLA-A*01:01 = target: T3, HLA-A*01:01 (human)
T3 construct: Peptide-receptive MHC monomer made by UV cleavage of a UV-sensitive peptide
Excerpt: as §1, §2

B1: MVPSAGQLALF (peptide)
peptide: MVPSAGQLALF
peptide exchange yield (HLA-B*07:02): 20 to 50%

B3: IYGPKYIHPSF (peptide)
peptide: IYGPKYIHPSF
peptide exchange yield (HLA-A*24:02): > 75%

B5: SPLRGGSSL (peptide)
peptide: SPLRGGSSL
peptide exchange yield (HLA-B*07:02): 20 to 50%

B8: SILGSDVRVPSY (peptide)
peptide: SILGSDVRVPSY
peptide exchange yield (HLA-A*01:01): 20 to 50%

B9: APSGTRVVQVL (peptide)
peptide: APSGTRVVQVL
peptide exchange yield (HLA-B*07:02): 20 to 50%

B10: NFLPPIIARF (peptide)
peptide: NFLPPIIARF
peptide exchange yield (HLA-A*24:02): > 75%

B11: SFDSNLLSF (peptide)
peptide: SFDSNLLSF
peptide exchange yield (HLA-A*24:02): 10 to 20%

B13: FELPTGAGLQL (peptide)
peptide: FELPTGAGLQL
peptide exchange yield (HLA-B*07:02): 20 to 50%

B14: RSDPGGGGLAY (peptide)
peptide: RSDPGGGGLAY
peptide exchange yield (HLA-A*01:01): 50 to 75%

B15: IFINLSPEF (peptide)
peptide: IFINLSPEF
peptide exchange yield (HLA-A*24:02): > 75%

B17: ISTPSEVSTPL (peptide)
peptide: ISTPSEVSTPL
peptide exchange yield (HLA-B*07:02): 20 to 50%

B18: APAAVPSAPA (peptide)
peptide: APAAVPSAPA
peptide exchange yield (HLA-B*07:02): 50 to 75%

B19: FPYPYAERL (peptide)
peptide: FPYPYAERL
peptide exchange yield (HLA-B*07:02): 20 to 50%

B20: RPASSLRP (peptide)
peptide: RPASSLRP
peptide exchange yield (HLA-B*07:02): 20 to 50%

B24: HPIETLVDIF (peptide)
peptide: HPIETLVDIF
peptide exchange yield (HLA-B*07:02): 20 to 50%

B26: MYAKEFDLL (peptide)
peptide: MYAKEFDLL
peptide exchange yield (HLA-A*24:02): 50 to 75%

B27: GPGTRLSL (peptide)
peptide: GPGTRLSL
peptide exchange yield (HLA-B*07:02): 20 to 50%

B29: NSDLKYNAL (peptide)
peptide: NSDLKYNAL
peptide exchange yield (HLA-A*01:01): 20 to 50%

B30: NPYEGRVEV (peptide)
peptide: NPYEGRVEV
peptide exchange yield (HLA-B*07:02): 20 to 50%

B31: FITAQNHGY (peptide)
peptide: FITAQNHGY
peptide exchange yield (HLA-A*01:01): 20 to 50%

B33: RPAPADSAL (peptide)
peptide: RPAPADSAL
peptide exchange yield (HLA-B*07:02): 50 to 75%

B35: LPDGSRVEL (peptide)
peptide: LPDGSRVEL
peptide exchange yield (HLA-B*07:02): 20 to 50%

B36: RPAVGHSGL (peptide)
peptide: RPAVGHSGL
peptide exchange yield (HLA-B*07:02): 20 to 50%

B37: MPMISIPRV (peptide)
peptide: MPMISIPRV
peptide exchange yield (HLA-B*07:02): 20 to 50%

B39: IPEPSAQQL (peptide)
peptide: IPEPSAQQL
peptide exchange yield (HLA-B*07:02): 20 to 50%

B40: HPQVVILSL (peptide)
peptide: HPQVVILSL
peptide exchange yield (HLA-B*07:02): 50 to 75%

B41: RVPSYTLIL (peptide)
peptide: RVPSYTLIL
peptide exchange yield (HLA-B*07:02): 50 to 75%

B42: SPGDKRLAA (peptide)
peptide: SPGDKRLAA
peptide exchange yield (HLA-B*07:02): 50 to 75%

B43: KPSSKALGTSL (peptide)
peptide: KPSSKALGTSL
peptide exchange yield (HLA-B*07:02): 50 to 75%

B44: SPIKVPLLL (peptide)
peptide: SPIKVPLLL
peptide exchange yield (HLA-B*07:02): 50 to 75%

B45: IPTDKLLVI (peptide)
peptide: IPTDKLLVI
peptide exchange yield (HLA-B*07:02): 20 to 50%

B46: LVLDYSKDYNHW (peptide)
peptide: LVLDYSKDYNHW
peptide exchange yield (HLA-A*24:02): 10 to 20%

B47: KPAHYPLIAL (peptide)
peptide: KPAHYPLIAL
peptide exchange yield (HLA-B*07:02): 50 to 75%

B48: FPTEVTPHAF (peptide)
peptide: FPTEVTPHAF
peptide exchange yield (HLA-B*07:02): 20 to 50%

B50: APKLFAVAF (peptide)
peptide: APKLFAVAF
peptide exchange yield (HLA-B*07:02): 50 to 75%

B53: HDPDVGSNSL (peptide)
peptide: HDPDVGSNSL
peptide exchange yield (HLA-B*07:02): 20 to 50%

B54: LPALPQQLI (peptide)
peptide: LPALPQQLI
peptide exchange yield (HLA-B*07:02): 50 to 75%

B56: KFLDSNIKF (peptide)
peptide: KFLDSNIKF
peptide exchange yield (HLA-A*24:02): 50 to 75%

B58: IPSRLLAIL (peptide)
peptide: IPSRLLAIL
peptide exchange yield (HLA-B*07:02): 50 to 75%

B59: RQYLAINQI (peptide)
peptide: RQYLAINQI
peptide exchange yield (HLA-A*24:02): 10 to 20%

B61: KLYGMPTDFGF (peptide)
peptide: KLYGMPTDFGF
peptide exchange yield (HLA-A*24:02): 20 to 50%

B62: LITGDPKAAYDY (peptide)
peptide: LITGDPKAAYDY
peptide exchange yield (HLA-A*01:01): 20 to 50%

B64: FPAHPSLLL (peptide)
peptide: FPAHPSLLL
peptide exchange yield (HLA-B*07:02): 20 to 50%

The remaining lines, values ahead:

peptide exchange yield (HLA-A*24:02): 50 to 75%
B2: VWAKILSAF (peptide)
peptide: VWAKILSAF

peptide exchange yield (HLA-B*07:02): 20 to 50%
B4: VPERGEPEL (peptide)
peptide: VPERGEPEL

peptide exchange yield (HLA-B*07:02): 20 to 50%
B6: VPDGVSKVL (peptide)
peptide: VPDGVSKVL

peptide exchange yield (HLA-A*01:01): 20 to 50%
B7: TPVTEFSLNTY (peptide)
peptide: TPVTEFSLNTY

peptide exchange yield (HLA-B*07:02): 50 to 75%
B12: TPIAKVSEL (peptide)
peptide: TPIAKVSEL

peptide exchange yield (HLA-A*01:01): 50 to 75%
B16: YSHAAGQGTGLY (peptide)
peptide: YSHAAGQGTGLY

peptide exchange yield (HLA-B*07:02): 20 to 50%
B21: SPSPGKDPTL (peptide)
peptide: SPSPGKDPTL

peptide exchange yield (HLA-A*01:01): > 75%
B22: YSDLHAFYY (peptide)
peptide: YSDLHAFYY

peptide exchange yield (HLA-A*24:02): 50 to 75%
B23: SYIEKVRFL (peptide)
peptide: SYIEKVRFL

peptide exchange yield (HLA-A*24:02): 20 to 50%
B25: YFEEAANFL (peptide)
peptide: YFEEAANFL

peptide exchange yield (HLA-A*01:01): 50 to 75%
B28: VLDLSTNVY (peptide)
peptide: VLDLSTNVY

peptide exchange yield (HLA-B*07:02): 20 to 50%
B32: VVHPRTLLL (peptide)
peptide: VVHPRTLLL

peptide exchange yield (HLA-B*07:02): 20 to 50%
B34: YPLTGDTRL (peptide)
peptide: YPLTGDTRL

peptide exchange yield (HLA-A*24:02): 50 to 75%
B38: VYGDGHYLTF (peptide)
peptide: VYGDGHYLTF

peptide exchange yield (HLA-A*24:02): 50 to 75%
B49: TFQDKTLNF (peptide)
peptide: TFQDKTLNF

peptide exchange yield (HLA-A*24:02): 50 to 75%
B51: TYISKTIAL (peptide)
peptide: TYISKTIAL

peptide exchange yield (HLA-A*24:02): 20 to 50%
B52: VFLNQIYTQL (peptide)
peptide: VFLNQIYTQL

peptide exchange yield (HLA-A*24:02): 50 to 75%
B55: SYTKVEARL (peptide)
peptide: SYTKVEARL

peptide exchange yield (HLA-B*07:02): 50 to 75%
B57: SPMWHVQQL (peptide)
peptide: SPMWHVQQL

peptide exchange yield (HLA-B*07:02): 50 to 75%
B60: VPSLQRLML (peptide)
peptide: VPSLQRLML

peptide exchange yield (HLA-B*07:02): 20 to 50%
B63: YPSEVEHMF (peptide)
peptide: YPSEVEHMF

Reference: patent US20180291082A1 (IMMATICS BIOTECHNOLOGIES, published 2018)
